B1: Phytochrome A (Arabidopsis thaliana (Mouse-ear cress)), P14712 (parent)
chain: MSGSRPTQSSEGSRRSRHSARIIAQTTVDAKLHADFEESGSSFDYSTSVRVTGPVVENQPPRSDKVTTTYLHHIQKGKLIQPFGCLLALDEKTFKVIAYSENASELLTMASHAVPSVGEHPVLGIGTDIRSLFTAPSASALQKALGFGDVSLLNPILVHCRTSAKPFYAIIHRVTGSIIIDFEPVKPYEVPMTAAGALQSYKLAAKAITRLQSLPSGSMERLCDTMVQEVFELTGYDRVMAYKFHEDDHGEVVSEVTKPGLEPYLGLHYPATDIPQAARFLFMKNKVRMIVDCNAKHARVLQDEKLSFDLTLCGSTLRAPHSCHLQYMANMDSIASLVMAVVVNEEDGEGDAPDATTQPQKRKRLWGLVVCHNTTPRFVPFPLRYACEFLAQVFAIHVNKEVELDNQMVEKNILRTQTLLCDMLMRDAPLGIVSQSPNIMDLVKCDGAALLYKDKIWKLGTTPSEFHLQEIASWLCEYHMDSTGLSTDSLHDAGFPRALSLGDSVCGMAAVRISSKDMIFWFRSHTAGEVRWGGAKHDPDDRDDARRMHPRSSFKAFLEVVKTRSLPWKDYEMDAIHSLQLILRNAFKDSETTDVNTKVIYSKLNDLKIDGIQELEAVTSEMVRLIETATVPILAVDSDGLVNGWNTKIAELTGLSVDEAIGKHFLTLVEDSSVEIVKRMLENALEGTEEQNVQFEIKTHLSRADAGPISLVVNACASRDLHENVVGVCFVAHDLTGQKTVMDKFTRIEGDYKAIIQNPNPLIPPIFGTDEFGWCTEWNPAMSKLTGLKREEVIDKMLLGEVFGTQKSCCRLKNQEAFVNLGIVLNNAVTSQDPEKVSFAFFTRGGKYVECLLCVSKKLDREGVVTGVFCFLQLASHELQQALHVQRLAERTAVKRLKALAYIKRQIRNPLSGIMFTRKMIEGTELGPEQRRILQTSALCQKQLSKILDDSDLESIIEGCLDLEMKEFTLNEVLTASTSQVMMKSNGKSVRITNETGEEVMSDTLYGDSIRLQQVLADFMLMAVNFTPSGGQLTVSASLRKDQLGRSVHLANLEIRLTHTGAGIPEFLLNQMFGTEEDVSEEGLSLMVSRKLVKLMNGDVQYLRQAGKSSFIITAELAAANK
partner: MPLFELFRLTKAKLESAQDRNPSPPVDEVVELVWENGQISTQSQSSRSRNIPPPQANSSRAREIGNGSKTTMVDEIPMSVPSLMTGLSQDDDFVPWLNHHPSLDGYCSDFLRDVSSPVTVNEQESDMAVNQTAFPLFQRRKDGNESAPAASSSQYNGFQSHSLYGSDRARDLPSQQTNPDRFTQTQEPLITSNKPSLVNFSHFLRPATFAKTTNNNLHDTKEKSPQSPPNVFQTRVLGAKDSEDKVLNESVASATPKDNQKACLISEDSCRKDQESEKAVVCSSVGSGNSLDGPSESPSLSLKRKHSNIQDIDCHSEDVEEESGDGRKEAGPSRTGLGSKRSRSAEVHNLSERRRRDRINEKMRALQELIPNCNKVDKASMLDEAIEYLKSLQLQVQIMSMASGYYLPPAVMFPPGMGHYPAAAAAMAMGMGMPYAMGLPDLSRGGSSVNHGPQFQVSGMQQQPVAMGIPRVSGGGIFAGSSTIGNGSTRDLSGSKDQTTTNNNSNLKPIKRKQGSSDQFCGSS
B2: Phytochrome B (Arabidopsis thaliana (Mouse-ear cress)), P14713 (parent)
chain: MVSGVGGSGGGRGGGRGGEEEPSSSHTPNNRRGGEQAQSSGTKSLRPRSNTESMSKAIQQYTVDARLHAVFEQSGESGKSFDYSQSLKTTTYGSSVPEQQITAYLSRIQRGGYIQPFGCMIAVDESSFRIIGYSENAREMLGIMPQSVPTLEKPEILAMGTDVRSLFTSSSSILLERAFVAREITLLNPVWIHSKNTGKPFYAILHRIDVGVVIDLEPARTEDPALSIAGAVQSQKLAVRAISQLQALPGGDIKLLCDTVVESVRDLTGYDRVMVYKFHEDEHGEVVAESKRDDLEPYIGLHYPATDIPQASRFLFKQNRVRMIVDCNATPVLVVQDDRLTQSMCLVGSTLRAPHGCHSQYMANMGSIASLAMAVIINGNEDDGSNVASGRSSMRLWGLVVCHHTSSRCIPFPLRYACEFLMQAFGLQLNMELQLALQMSEKRVLRTQTLLCDMLLRDSPAGIVTQSPSIMDLVKCDGAAFLYHGKYYPLGVAPSEVQIKDVVEWLLANHADSTGLSTDSLGDAGYPGAAALGDAVCGMAVAYITKRDFLFWFRSHTAKEIKWGGAKHHPEDKDDGQRMHPRSSFQAFLEVVKSRSQPWETAEMDAIHSLQLILRDSFKESEAAMNSKVVDGVVQPCRDMAGEQGIDELGAVAREMVRLIETATVPIFAVDAGGCINGWNAKIAELTGLSVEEAMGKSLVSDLIYKENEATVNKLLSRALRGDEEKNVEVKLKTFSPELQGKAVFVVVNACSSKDYLNNIVGVCFVGQDVTSQKIVMDKFINIQGDYKAIVHSPNPLIPPIFAADENTCCLEWNMAMEKLTGWSRSEVIGKMIVGEVFGSCCMLKGPDALTKFMIVLHNAIGGQDTDKFPFPFFDRNGKFVQALLTANKRVSLEGKVIGAFCFLQIPSPELQQALAVQRRQDTECFTKAKELAYICQVIKNPLSGMRFANSLLEATDLNEDQKQLLETSVSCEKQISRIVGDMDLESIEDGSFVLKREEFFLGSVINAIVSQAMFLLRDRGLQLIRDIPEEIKSIEVFGDQIRIQQLLAEFLLSIIRYAPSQEWVEIHLSQLSKQMADGFAAIRTEFRMACPGEGLPPELVRDMFHSSRWTSPEGLGLSVCRKILKLMNGEVQYIRESERSYFLIILELPVPRKRPLSTASGSGDMMLMMPY
partner: B1 partner
B3: Phytochrome B (Oryza sativa subsp. japonica (Rice)), Q10MG9 (parent)
chain: MASGSRATPTRSPSSARPAAPRHQHHHSQSSGGSTSRAGGGGGGGGGGGGGAAAAESVSKAVAQYTLDARLHAVFEQSGASGRSFDYTQSLRASPTPSSEQQIAAYLSRIQRGGHIQPFGCTLAVADDSSFRLLAYSENTADLLDLSPHHSVPSLDSSAVPPPVSLGADARLLFAPSSAVLLERAFAAREISLLNPLWIHSRVSSKPFYAILHRIDVGVVIDLEPARTEDPALSIAGAVQSQKLAVRAISRLQALPGGDVKLLCDTVVEYVRELTGYDRVMVYRFHEDEHGEVVAESRRNNLEPYIGLHYPATDIPQASRFLFRQNRVRMIADCHAAPVRVIQDPALTQPLCLVGSTLRSPHGCHAQYMANMGSIASLVMAVIISSGGDDDHNISRGSIPSAMKLWGLVVCHHTSPRCIPFPLRYACEFLMQAFGLQLNMELQLAHQLSEKHILRTQTLLCDMLLRDSPTGIVTQSPSIMDLVKCDGAALYYHGKYYPLGVTPTEVQIKDIIEWLTMCHGDSTGLSTDSLADAGYPGAAALGDAVSGMAVAYITPSDYLFWFRSHTAKEIKWGGAKHHPEDKDDGQRMHPRSSFKAFLEVVKSRSLPWENAEMDAIHSLQLILRDSFRDSAEGTSNSKAIVNGQVQLGELELRGIDELSSVAREMVRLIETATVPIFAVDTDGCINGWNAKVAELTGLSVEEAMGKSLVNDLIFKESEETVNKLLSRALRGDEDKNVEIKLKTFGPEQSKGPIFVIVNACSSRDYTKNIVGVCFVGQDVTGQKVVMDKFINIQGDYKAIVHNPNPLIPPIFASDENTCCSEWNTAMEKLTGWSRGEVVGKLLVGEVFGNCCRLKGPDALTKFMIVLHNAIGGQDCEKFPFSFFDKNGKYVQALLTANTRSRMDGEAIGAFCFLQIASPELQQAFEIQRHHEKKCYARMKELAYIYQEIKNPLNGIRFTNSLLEMTDLKDDQRQFLETSTACEKQMSKIVKDASLQSIEDGSLVLEKGEFSLGSVMNAVVSQVMIQLRERDLQLIRDIPDEIKEASAYGDQYRIQQVLCDFLLSMVRFAPAENGWVEIQVRPNIKQNSDGTDTMLFLFRFACPGEGLPPEIVQDMFSNSRWTTQEGIGLSICRKILKLMGGEVQYIRESERSFFHIVLELPQPQQAASRGTS
partner: B1 partner

Variants of: B1
Details: with pif3_arath PIF3, O80536

Variant | effect of a mutation on the interaction
A715V | decreasing interaction
G787E | decreasing interaction

Variants of: B2
Details: with pif3_arath PIF3, O80536

Variant | effect of a mutation on the interaction
E812K | decreasing interaction
A750V | decreasing interaction

Variants of: B3
Details: with pif3_arath PIF3, O80536

Variant | effect of a mutation on the interaction
A759V | decreasing interaction
E821K | decreasing interaction

Source: IntAct's records for PubMed 9845368
